Assay results as given in doi:10.1101/2020.03.08.831909.

Experiments:
[1] = molecular target: lit-stabilized OptoMB variant (group of the BLI measurements in the light); assay: BLI
[2] = molecular target: OptoMB_(C450V), light-insensitive, His-tagged, purified (Avena sativa) (UniProt O49003); assay: BLI

Chain of YFP-SH2, purified (fusion of yellow fluorescent protein and SH2) (P00519 121-232): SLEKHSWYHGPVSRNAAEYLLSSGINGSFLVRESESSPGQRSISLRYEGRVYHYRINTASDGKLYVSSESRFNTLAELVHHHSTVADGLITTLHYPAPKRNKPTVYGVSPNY

Kd [1]: 11.2 µM
fold change of kon, dark against light [1]: < 46 fold
fold increase of koff, light against dark [1]: < 10 fold
Kd [2]: 0.07 µM
Substance: YFP-SH2, purified (fusion of yellow fluorescent protein and SH2) (from UniProt P00519 121-232) (domain or fragment)
